Source: publication PMC2756588

Columns and labels:
Experiment in all cases: SPOT array
Myo5, Q04439 = target: T1, Myo5, Q04439; conditions: median of control spots 471
T1 sequence (Q04439 1072-1160, looked up): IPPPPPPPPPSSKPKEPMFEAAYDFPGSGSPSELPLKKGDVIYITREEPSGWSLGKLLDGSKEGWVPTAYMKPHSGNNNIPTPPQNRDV

Bbc1, P47068 = target: T2, Bbc1, P47068; conditions: median of control spots 796
T2 sequence (P47068 1-78, looked up): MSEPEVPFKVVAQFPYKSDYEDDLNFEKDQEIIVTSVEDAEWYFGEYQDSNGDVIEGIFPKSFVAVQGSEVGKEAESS

Nbp2, Q12163 = target: T3, Nbp2, Q12163; conditions: median of control spots 357
T3 sequence (Q12163 103-180, looked up): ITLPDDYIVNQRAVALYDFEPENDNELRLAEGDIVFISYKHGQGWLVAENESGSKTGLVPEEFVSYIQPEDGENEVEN

Lsb3, P43603 = target: T4, Lsb3, P43603; conditions: median of control spots 406
T4 sequence (P43603 385-451, looked up): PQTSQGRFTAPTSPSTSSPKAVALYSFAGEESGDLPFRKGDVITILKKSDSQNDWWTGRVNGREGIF

Bzz1-2, P38822 = target: T5, Bzz1-2, P38822; conditions: median of control spots 4538
T5 sequence (P38822 568-633, looked up): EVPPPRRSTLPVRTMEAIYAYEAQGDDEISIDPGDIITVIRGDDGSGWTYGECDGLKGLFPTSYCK

Cyk3, Q07533 = target: T6, Cyk3, Q07533; conditions: median of control spots 1451
T6 sequence (Q07533 1-83, looked up): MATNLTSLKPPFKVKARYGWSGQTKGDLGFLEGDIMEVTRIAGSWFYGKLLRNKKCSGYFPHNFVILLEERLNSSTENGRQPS

Bzz1-1, P38822 = target: T7, Bzz1-1, P38822; conditions: median of control spots 4446
T7 sequence (P38822 478-572, looked up): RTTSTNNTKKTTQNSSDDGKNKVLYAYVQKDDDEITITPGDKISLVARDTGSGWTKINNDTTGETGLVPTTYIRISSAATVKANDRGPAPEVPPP

Sho1, P40073 = conditions: median of control spots 1148
Lsb4, P32793 = target: T8, Lsb4, P32793; conditions: median of control spots 397
T8 sequence (P32793 402-468, looked up): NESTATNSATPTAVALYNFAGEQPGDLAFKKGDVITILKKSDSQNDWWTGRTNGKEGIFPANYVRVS

GST = conditions: median of control spots 978
Fus1, P11710 = target: T9, Fus1, P11710; conditions: median of control spots 1200
T9 sequence (P11710 432-512, looked up): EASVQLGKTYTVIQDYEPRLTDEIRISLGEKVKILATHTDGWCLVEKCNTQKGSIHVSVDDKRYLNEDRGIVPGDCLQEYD

Rvs167, P39743 = conditions: median of control spots 2707
Abp1, P15891 = target: T10, Abp1, P15891; conditions: median of control spots 935
T10 sequence (P15891 535-592, looked up): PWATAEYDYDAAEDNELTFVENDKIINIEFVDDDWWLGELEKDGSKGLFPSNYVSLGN

Sla1-2, P32790 = target: T11, Sla1-2, P32790; conditions: median of control spots 712
T11 sequence (P32790 60-140, looked up): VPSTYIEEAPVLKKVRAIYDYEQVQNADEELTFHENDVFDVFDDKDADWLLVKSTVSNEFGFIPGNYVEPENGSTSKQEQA

Cdc25, P04821 = target: T12, Cdc25, P04821; conditions: median of control spots 969
T12 sequence (P04821 50-136, looked up): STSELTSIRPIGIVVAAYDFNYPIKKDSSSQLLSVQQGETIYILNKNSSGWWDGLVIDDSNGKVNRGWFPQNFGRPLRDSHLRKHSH

Bem1-2, P29366 = conditions: median of control spots 4347
Lsb1, P53281 = target: T13, Lsb1, P53281; conditions: median of control spots 388
T13 sequence (P53281 45-122, looked up): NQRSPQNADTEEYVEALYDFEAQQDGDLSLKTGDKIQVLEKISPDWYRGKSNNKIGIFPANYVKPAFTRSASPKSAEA

Pin3, Q06449 = target: T14, Pin3, Q06449; conditions: median of control spots 2171
T14 sequence (Q06449 53-122, looked up): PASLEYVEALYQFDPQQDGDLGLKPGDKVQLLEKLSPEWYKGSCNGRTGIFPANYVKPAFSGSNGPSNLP

Pex13, P80667 = target: T15, Pex13, P80667; conditions: median of control spots 1341
T15 sequence (P80667 295-386, looked up): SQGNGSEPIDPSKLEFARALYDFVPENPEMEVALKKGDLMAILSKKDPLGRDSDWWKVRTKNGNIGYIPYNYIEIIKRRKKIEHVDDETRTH

Boi2, P39969 = target: T16, Boi2, P39969; conditions: median of control spots 1161
T16 sequence (P39969 32-116, looked up): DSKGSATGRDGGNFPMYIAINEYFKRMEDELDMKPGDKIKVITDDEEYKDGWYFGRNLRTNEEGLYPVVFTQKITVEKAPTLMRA

Boi1, P38041 = target: T17, Boi1, P38041; conditions: median of control spots 1162
T17 sequence (P38041 1-86, looked up): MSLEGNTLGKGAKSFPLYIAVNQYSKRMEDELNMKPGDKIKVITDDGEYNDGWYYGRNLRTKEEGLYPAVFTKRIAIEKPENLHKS

Bud14, P27637 = target: T18, Bud14, P27637; conditions: median of control spots 956
T18 sequence (P27637 247-328, looked up): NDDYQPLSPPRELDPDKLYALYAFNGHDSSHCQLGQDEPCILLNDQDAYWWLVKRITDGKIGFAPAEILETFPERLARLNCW

Sla1-3, P32790 = target: T19, Sla1-3, P32790; conditions: median of control spots 5475
T19 sequence (P32790 344-424, looked up): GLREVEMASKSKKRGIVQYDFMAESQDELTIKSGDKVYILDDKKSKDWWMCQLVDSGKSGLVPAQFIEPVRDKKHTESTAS

Bem1-1, P29366 = conditions: median of control spots 4282
Myo3, P36006 = conditions: median of control spots 468
Hof1, Q05080 = target: T20, Hof1, Q05080; conditions: median of control spots 4086
T20 sequence (Q05080 590-669, looked up): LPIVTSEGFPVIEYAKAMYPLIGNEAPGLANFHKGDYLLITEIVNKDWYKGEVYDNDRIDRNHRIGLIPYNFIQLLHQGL

Hse1, P38753 = target: T21, Hse1, P38753; conditions: median of control spots 1727
T21 sequence (P38753 208-285, looked up): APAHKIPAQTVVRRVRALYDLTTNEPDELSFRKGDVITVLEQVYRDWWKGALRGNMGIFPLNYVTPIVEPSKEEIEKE

Chain of Bem1-1, P29366 (P29366 55-141): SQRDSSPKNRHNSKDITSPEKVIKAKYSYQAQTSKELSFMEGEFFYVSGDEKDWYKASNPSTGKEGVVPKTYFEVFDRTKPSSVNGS
Chain of Bem1-2, P29366 (P29366 139-227): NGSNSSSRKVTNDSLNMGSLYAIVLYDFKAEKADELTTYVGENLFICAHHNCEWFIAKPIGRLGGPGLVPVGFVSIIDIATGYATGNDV
Chain of Sho1, P40073 (P40073 287-367): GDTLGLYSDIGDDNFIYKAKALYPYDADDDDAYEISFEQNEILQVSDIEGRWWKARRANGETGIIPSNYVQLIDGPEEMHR
Chain of Rvs167, P39743 (P39743 419-482): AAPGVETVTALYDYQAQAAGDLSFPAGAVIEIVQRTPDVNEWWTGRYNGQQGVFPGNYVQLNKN

Binder	SPOT intensity (Myo5, Q04439)	SPOT intensity (Bbc1, P47068)	SPOT intensity (Nbp2, Q12163)	SPOT intensity (Lsb3, P43603)	SPOT intensity (Bzz1-2, P38822)	SPOT intensity (Cyk3, Q07533)	SPOT intensity (Bzz1-1, P38822)	SPOT intensity (Sho1, P40073)	SPOT intensity (Lsb4, P32793)	SPOT intensity (GST)	SPOT intensity (Fus1, P11710)	SPOT intensity (Rvs167, P39743)	SPOT intensity (Abp1, P15891)	SPOT intensity (Sla1-2, P32790)	SPOT intensity (Cdc25, P04821)	SPOT intensity (Bem1-2, P29366)	SPOT intensity (Lsb1, P53281)	SPOT intensity (Pin3, Q06449)	SPOT intensity (Pex13, P80667)	SPOT intensity (Boi2, P39969)	further results
SKIRPTPRKPSRMAT	23	37	44	124	16	6	6	177	162	2	12	148	345	21	35	50	10	20	40	3	SPOT intensity (Boi1, P38041): 4; SPOT intensity (Bud14, P27637): 13; SPOT intensity (Sla1-3, P32790): 21; SPOT intensity (Bem1-1, P29366): 6; SPOT intensity (Myo3, P36006): 50; SPOT intensity (Hof1, Q05080): 8; SPOT intensity (Hse1, P38753): 19
ATKSASPTLPTRRSR	0	79	2	834	1	1	3	132	1180	1	2	1540	182	8	22	18	56	20	249	0	SPOT intensity (Boi1, P38041): 3; SPOT intensity (Bud14, P27637): 8; SPOT intensity (Sla1-3, P32790): 1; SPOT intensity (Bem1-1, P29366): 3; SPOT intensity (Myo3, P36006): 12; SPOT intensity (Hof1, Q05080): 0; SPOT intensity (Hse1, P38753): 2
TSFKGRPKPPKTLKH	0	5	0	0	11	2	0	43	0	0	1	0	128	0	2	0	0	4	3	0	SPOT intensity (Boi1, P38041): 1; SPOT intensity (Bud14, P27637): 1; SPOT intensity (Sla1-3, P32790): 2; SPOT intensity (Bem1-1, P29366): 0; SPOT intensity (Myo3, P36006): 0; SPOT intensity (Hof1, Q05080): 1; SPOT intensity (Hse1, P38753): 2
SSSSSPPPLPTRRDH	19	3	0	485	3	1	6	0	748	1	1	3540	0	0	15	13	463	0	467	4	SPOT intensity (Boi1, P38041): 4; SPOT intensity (Bud14, P27637): 0; SPOT intensity (Sla1-3, P32790): 7; SPOT intensity (Bem1-1, P29366): 8; SPOT intensity (Myo3, P36006): 69; SPOT intensity (Hof1, Q05080): 16; SPOT intensity (Hse1, P38753): 4

Further lines, with some results ahead:

SPOT intensity (Myo5, Q04439)	SPOT intensity (Bbc1, P47068)	SPOT intensity (Nbp2, Q12163)	SPOT intensity (Lsb3, P43603)	SPOT intensity (Bzz1-2, P38822)	SPOT intensity (Cyk3, Q07533)	SPOT intensity (Bzz1-1, P38822)	SPOT intensity (Sho1, P40073)	SPOT intensity (Lsb4, P32793)	SPOT intensity (GST)	SPOT intensity (Fus1, P11710)	SPOT intensity (Rvs167, P39743)	SPOT intensity (Abp1, P15891)	SPOT intensity (Sla1-2, P32790)	SPOT intensity (Cdc25, P04821)	SPOT intensity (Bem1-2, P29366)	SPOT intensity (Lsb1, P53281)	SPOT intensity (Pin3, Q06449)	SPOT intensity (Pex13, P80667)	SPOT intensity (Boi2, P39969)	Binder	further results
0	0	1	249	2	0	0	72	231	2	0	8	16	1	0	16	0	0	309	0	QNTPPLPPKPKSPHL	SPOT intensity (Boi1, P38041): 3; SPOT intensity (Bud14, P27637): 0; SPOT intensity (Sla1-3, P32790): 0; SPOT intensity (Bem1-1, P29366): 0; SPOT intensity (Myo3, P36006): 0; SPOT intensity (Hof1, Q05080): 1320; SPOT intensity (Hse1, P38753): 634
0	2	0	0	360	5	10	21	0	3	1	1	899	2	15	0	4	1	4	3	KKAPPPVVKPKPRNF	SPOT intensity (Boi1, P38041): 0; SPOT intensity (Bud14, P27637): 3; SPOT intensity (Sla1-3, P32790): 0; SPOT intensity (Bem1-1, P29366): 0; SPOT intensity (Myo3, P36006): 0; SPOT intensity (Hof1, Q05080): 10; SPOT intensity (Hse1, P38753): 0
